Test results as given in the RNAGym collection of RNA variant scans (doi:10.7554/elife.80360).

B1: Hairpin Ribozyme (parent)
chain: GUCCUCUUUCACGUGCGCGUGAAAGAGAGAAGUGAACCAGAGAAACACACGUUGUGGUAUAUUACCUGGUA

Variants of: B1
Test: self-cleavage, relative activity (ratio to wild type); higher = more cleavage; co-transcriptional

In order of falling self-cleavage:
1. GUCCUCUUUCACGUGCGCGUGAAAGAGUGAAGUUAACCAGAGAAACACACGUUGUGGUAUAUUACCUGGUA [A28U G34U]  1.41
2. GUCCUCUUUCACGUGCGCGUGAAAGAGUGAAGUCAACCAGAGAAACACACGUUGUGGUAUAUUACCUGGUA [A28U G34C]  1.23
3. GUCCUCUUUCACGUGCGCGUGAAAGAGGGAAGUGAACCAGAGAAACACACGUUGUGGUAUAUUACCUGGGA [A28G U70G]  0.978
4. GUCCUCUUUCACGUGCGCGUGAAAGAGGGAAGUGAACCAGAGAAACACACGUUGUGGGAUAUUACCUGGUA [A28G U58G]  0.91
5. GUCCUCUUUCACGUGCGCGUGAAAGAGGGAAGUGAACCAGAGAAACACACGAUGUGGUAUAUUACCUGGUA [A28G U52A]  0.814
6. GUCCUCUUUCACGUGCGCGUGAAAGAGGGAAGUGAACCAGAGAAACACACGUUGUGGCAUAUUACCUGGUA [A28G U58C]  0.791
7. GUCCUCUUUCACGUGCGCGUGAAAGAGUGAAGUGAACCAGAGAAACACACGUCGUGGUAUAUUACCUGGUA [A28U U53C]  0.769
8. GUCCUCUUUCACGUGCGCGUGAAAGAGUGAAGUGAACCAGAGAAACACACAUUGUGGUAUAUUACCUGGUA [A28U G51A]  0.716
9. GUCCUCUUUCACGUGCGCGUGAAAGAGUGAAGUGAGCCAGAGAAACACACGUUGUGGUAUAUUACCUGGUA [A28U A36G]  0.656
10. GUCCUCUUUCACGUGCGCGUGAAAGAGUGAAGUGAACCAGAGAAACACACGUUGUGGCAUAUUACCUGGUA [A28U U58C]  0.58
11. GUCCUCUUUCACGUGCGCGUGAAAGAGGGAAGUGAACCAGAGAAACACACGUUGGGGUAUAUUACCUGGUA [A28G U55G]  0.427
12. GUCCUCUUUCACGUGCGCGUGAAAGAGUGAAGUGAACCAGAGAAACACACGGUGUGGUAUAUUACCUGGUA [A28U U52G]  0.374
13. GUCCUCUUUCACGUGCGCGUGAAAGAGUGAAGUGAACCAGAGAAACACGCGUUGUGGUAUAUUACCUGGUA [A28U A49G]  0.365
14. GUCCUCUUUCACGUGCGCGUGAAAGAGUGAAGUGAACCAGAGAAACACACGUUGUGGUAUAUUACCUGGGA [A28U U70G]  0.338
15. GUCCUCUUUCACGUGCGCGUGAAAGAGUGAAGUGAACCAGAGAAACACACGUUAUGGUAUAUUACCUGGUA [A28U G54A]  0.32
16. GUCCUCUUUCACGUGCGCGUGAAAGAGGGAAGUGAACCAGAGAAACACACGUUGUGGUAUACUACCUGGUA [A28G U62C]  0.302
17. GUCCUCUUUCACGUGCGCGUGAAAGAGUGAAGUGAACCAGAGAAACACACGUUGUGGUAGAUUACCUGGUA [A28U U60G]  0.3
18. GUCCUCUUUCACGUGCGCGUGAAAGAGGGAAGUGAACCAGAGAAACACACGUUGUGGUAUAUUACCGGGUA [A28G U67G]  0.294
19. GUCCUCUUUCACGUGCGCGUGAAAGAGAAAAGUGAUCCAGAGAAACACACGUUGUGGUAUAUUACCUGGUA [G29A A36U]  0.278
20. GUCCUCUUUCACGUGCGCGUGAAAGAGUGACGUGAACCAGAGAAACACACGUUGUGGUAUAUUACCUGGUA [A28U A31C]  0.251
21. GUCCUCUUUCACGUGCGCGUGAAAGAGUGAAGUGAACCAGAGAGACACACGUUGUGGUAUAUUACCUGGUA [A28U A44G]  0.25
22. GUCCUCUUUCACGUGCGCGUGAAAGAGAAAAGUGAACCAGAGAAACGCACGUUGUGGUAUAUUACCUGGUA [G29A A47G]  0.244
23. GUCCUCUUUCACGUGCGCGUGAAAGAGAAAAGUGAACCAGAGAAAUACACGUUGUGGUAUAUUACCUGGUA [G29A C46U]  0.238
24. GUCCUCUUUCACGUGCGCGUGAAAGAGUGAAGUGAACCAGAGAAACACACGUUGAGGUAUAUUACCUGGUA [A28U U55A]  0.235
25. GUCCUCUUUCACGUGCGCGUGAAAGAGUGAAGUGAACCAGAGAAUCACACGUUGUGGUAUAUUACCUGGUA [A28U A45U]  0.224
26. GUCCUCUUUCACGUGCGCGUGAAAGAGUGAAGUGAACCAGAGAAACACACGUUGUGGUAUAUUACCUGCUA [A28U G69C]  0.219
27. GUCCUCUUUCACGUGCGCGUGAAAGAGUGAAGUGAACCAGAGAAACACACGUUCUGGUAUAUUACCUGGUA [A28U G54C]  0.219
28. GUCCUCUUUCACGUGCGCGUGAAAGAGAAAAGUGAACCAGAGGAACACACGUUGUGGUAUAUUACCUGGUA [G29A A43G]  0.205
29. GUCCUCUUUCACGUGCGCGUGAAAGAGUGAAGUGAACCAGAGAAACAGACGUUGUGGUAUAUUACCUGGUA [A28U C48G]  0.195
30. GUCCUCUUUCACGUGCGCGUGAAAGAGUGAAGUGAACCAGAGAAACACACGUUGUGGUAUAUUACAUGGUA [A28U C66A]  0.194
31. GUCCUCUUUCACGUGCGCGUGAAAGAGAAAAGUGAACUAGAGAAACACACGUUGUGGUAUAUUACCUGGUA [G29A C38U]  0.19
32. GUCCUCUUUCACGUGCGCGUGAAAGAGUGAAGUGAACCAGAGACACACACGUUGUGGUAUAUUACCUGGUA [A28U A44C]  0.179
33. GUCCUCUUUCACGUGCGCGUGAAAGAGAAAUGUGAACCAGAGAAACACACGUUGUGGUAUAUUACCUGGUA [G29A A31U]  0.178
34. GUCCUCUUUCACGUGCGCGUGAAAGAGAAAAGUGAACCAGAGACACACACGUUGUGGUAUAUUACCUGGUA [G29A A44C]  0.17
35. GUCCUCUUUCACGUGCGCGUGAAAGAGAAAAGUGAACCAGAGAAACACAAGUUGUGGUAUAUUACCUGGUA [G29A C50A]  0.168
36. GUCCUCUUUCACGUGCGCGUGAAAGAGUGCAGUGAACCAGAGAAACACACGUUGUGGUAUAUUACCUGGUA [A28U A30C]  0.167
37. GUCCUCUUUCACGUGCGCGUGAAAGAGAAAAGUGAACCAGAGAAACACACGUUGUGGUGUAUUACCUGGUA [G29A A59G]  0.162
38. GUCCUCUUUCACGUGCGCGUGAAAGAGUGAAGUGAACAAGAGAAACACACGUUGUGGUAUAUUACCUGGUA [A28U C38A]  0.159
39. GUCCUCUUUCACGUGCGCGUGAAAGAGUGAAGUGAACCAGAGAAACACACGUUGUGAUAUAUUACCUGGUA [A28U G57A]  0.152
40. GUCCUCUUUCACGUGCGCGUGAAAGAGUGAAGAGAACCAGAGAAACACACGUUGUGGUAUAUUACCUGGUA [A28U U33A]  0.152
41. GUCCUCUUUCACGUGCGCGUGAAAGAGAAAGGUGAACCAGAGAAACACACGUUGUGGUAUAUUACCUGGUA [G29A A31G]  0.145
42. GUCCUCUUUCACGUGCGCGUGAAAGAGUGAAGUGAAACAGAGAAACACACGUUGUGGUAUAUUACCUGGUA [A28U C37A]  0.143
43. GUCCUCUUUCACGUGCGCGUGAAAGAGAAAAGUGAACCAGAGAAACACACGUUGUGGUCUAUUACCUGGUA [G29A A59C]  0.138
44. GUCCUCUUUCACGUGCGCGUGAAAGAGAAAAGUGAACCAGAGAAACACGCGUUGUGGUAUAUUACCUGGUA [G29A A49G]  0.138
45. GUCCUCUUUCACGUGCGCGUGAAAGAGAAGAGUGAACCAGAGAAACACACGUUGUGGUAUAUUACCUGGUA [G29A A30G]  0.135
46. GUCCUCUUUCACGUGCGCGUGAAAGAGAAAAGUGAACCAGAGAAACACACGUUGUGGUAUAUUUCCUGGUA [G29A A64U]  0.134
47. GUCCUCUUUCACGUGCGCGUGAAAGAGUGAAGUGAACCAGAGCAACACACGUUGUGGUAUAUUACCUGGUA [A28U A43C]  0.133
48. GUCCUCUUUCACGUGCGCGUGAAAGAGUGAAGUGAACCAGAGUAACACACGUUGUGGUAUAUUACCUGGUA [A28U A43U]  0.132
49. GUCCUCUUUCACGUGCGCGUGAAAGAGAAAAGUGAACCAGAGAAACAAACGUUGUGGUAUAUUACCUGGUA [G29A C48A]  0.131
50. GUCCUCUUUCACGUGCGCGUGAAAGAGUGAAGUGAACCAUAGAAACACACGUUGUGGUAUAUUACCUGGUA [A28U G40U]  0.13
51. GUCCUCUUUCACGUGCGCGUGAAAGAGUGAAGUGAACCAGAGAAACACACGUUGUGGUAUAUAACCUGGUA [A28U U63A]  0.128
52. GUCCUCUUUCACGUGCGCGUGAAAGAGAAAAGUGAACCAGAGAAACACACGUUGUGGUAUAUUACCUGGUA [G29A]  0.126
53. GUCCUCUUUCACGUGCGCGUGAAAGAGAAAAGUGAACCAGAGAAACACACGUUGUGGUAUAUUACCUGGUU [G29A A71U]  0.126
54. GUCCUCUUUCACGUGCGCGUGAAAGAGUGAAGUGAACCAGAGAAACUCACGUUGUGGUAUAUUACCUGGUA [A28U A47U]  0.125
55. GUCCUCUUUCACGUGCGCGUGAAAGAGUGAAGUGAACCAGAGAAACACACGUUGUGGUAUAUUACCCGGUA [A28U U67C]  0.12
56. GUCCUCUUUCACGUGCGCGUGAAAGAGAAAAGUGAACCAGAGAAACACACGUUGUGGUAUAUUCCCUGGUA [G29A A64C]  0.115
57. GUCCUCUUUCACGUGCGCGUGAAAGAGAAAAGUGAACCAGAGAGACACACGUUGUGGUAUAUUACCUGGUA [G29A A44G]  0.113
58. GUCCUCUUUCACGUGCGCGUGAAAGAGAAAAGUGAACCUGAGAAACACACGUUGUGGUAUAUUACCUGGUA [G29A A39U]  0.107
59. GUCCUCUUUCACGUGCGCGUGAAAGAGAAAAGUGAACCAGGGAAACACACGUUGUGGUAUAUUACCUGGUA [G29A A41G]  0.106
60. GUCCUCUUUCACGUGCGCGUGAAAGAGUGAAGUGAACCAGAGAAACACAUGUUGUGGUAUAUUACCUGGUA [A28U C50U]  0.1
61. GUCCUCUUUCACGUGCGCGUGAAAGAGUGAAGUGAACCAGAGAAACACACGUUGUGGUAUAUUACCAGGUA [A28U U67A]  0.0994
62. GUCCUCUUUCACGUGCGCGUGAAAGAGAAAAGUGAACCAGAGAAAAACACGUUGUGGUAUAUUACCUGGUA [G29A C46A]  0.0992
63. GUCCUCUUUCACGUGCGCGUGAAAGAGAAAAGUGAACCAGAGAAACACACGUUGUGGUAUUUUACCUGGUA [G29A A61U]  0.096
64. GUCCUCUUUCACGUGCGCGUGAAAGAGUGAAGUGAACCAGAGAACCACACGUUGUGGUAUAUUACCUGGUA [A28U A45C]  0.0951
65. GUCCUCUUUCACGUGCGCGUGAAAGAGAAAAGUGACCCAGAGAAACACACGUUGUGGUAUAUUACCUGGUA [G29A A36C]  0.0858
66. GUCCUCUUUCACGUGCGCGUGAAAGAGAAAAGUGAACCAGAGUAACACACGUUGUGGUAUAUUACCUGGUA [G29A A43U]  0.0816
67. GUCCUCUUUCACGUGCGCGUGAAAGAGUGAAGCGAACCAGAGAAACACACGUUGUGGUAUAUUACCUGGUA [A28U U33C]  0.079
68. GUCCUCUUUCACGUGCGCGUGAAAGAGAAAAGUGAACCAGAGAAACACACGUUGUGGUAUAUUAACUGGUA [G29A C65A]  0.0759
69. GUCCUCUUUCACGUGCGCGUGAAAGAGAAAAGUGAACCAGAGAACCACACGUUGUGGUAUAUUACCUGGUA [G29A A45C]  0.0675
70. GUCCUCUUUCACGUGCGCGUGAAAGAGAAAAGUGAACCAGAGAAACAUACGUUGUGGUAUAUUACCUGGUA [G29A C48U]  0.0646
71. GUCCUCUUUCACGUGCGCGUGAAAGAGUGAAGUGAACGAGAGAAACACACGUUGUGGUAUAUUACCUGGUA [A28U C38G]  0.0619
72. GUCCUCUUUCACGUGCGCGUGAAAGAGAAAAGUGAACCAGAGAAAGACACGUUGUGGUAUAUUACCUGGUA [G29A C46G]  0.0584
73. GUCCUCUUUCACGUGCGCGUGAAAGAGUGGAGUGAACCAGAGAAACACACGUUGUGGUAUAUUACCUGGUA [A28U A30G]  0.0577
74. GUCCUCUUUCACGUGCGCGUGAAAGAGAAAAGUGAACCAGCGAAACACACGUUGUGGUAUAUUACCUGGUA [G29A A41C]  0.053
75. GUCCUCUUUCACGUGCGCGUGAAAGAGAAAAGUGAACCAGAGAAUCACACGUUGUGGUAUAUUACCUGGUA [G29A A45U]  0.0463
76. GUCCUCUUUCACGUGCGCGUGAAAGAGUGAAGUGAACCAGAGAAACGCACGUUGUGGUAUAUUACCUGGUA [A28U A47G]  0.0453
